Target: T1, PYK2 (UniProt Q14289 1-1009, limits assumed)
T1 construct: Endogenous protein in cell lysate, detected with anti-PYK2 monoclonal antibody P47120 (Transduction Labs)
Assay: GST pull-down from JY8-8 lysate, anti-Pyk2 immunoblot
Experimental: In preparation of cell lysate including Pyk2, JY8-8 cell lysate was prepared by disrupting 4×10⁷ exponentially growing cells in one ml of Ipegal Lysis Buffer (described above) for 10 minutes on ice. Lysate was clarified by centrifugation at 10,000 rpm in a microfuge at 4° C. JY8-8 lysate (corresponding to approximately 1×10⁷ cells) was incubated for 90 minutes with 30 μl glutathione agarose on which approximately one μg of GST or GST-containing fusion protein was immobilized. The resin was washed three times with one ml Ipegal lysis buffer.
Pyk2 present in lysates of JY8-8 cells bound specifically to GST-LD protein but not to GST alone. Pyk2 binding was detected with wild-type GST-LD, and GST-LD proteins with mutations in the second or fourth LD motifs.

T1 sequence (Q14289 whole entry): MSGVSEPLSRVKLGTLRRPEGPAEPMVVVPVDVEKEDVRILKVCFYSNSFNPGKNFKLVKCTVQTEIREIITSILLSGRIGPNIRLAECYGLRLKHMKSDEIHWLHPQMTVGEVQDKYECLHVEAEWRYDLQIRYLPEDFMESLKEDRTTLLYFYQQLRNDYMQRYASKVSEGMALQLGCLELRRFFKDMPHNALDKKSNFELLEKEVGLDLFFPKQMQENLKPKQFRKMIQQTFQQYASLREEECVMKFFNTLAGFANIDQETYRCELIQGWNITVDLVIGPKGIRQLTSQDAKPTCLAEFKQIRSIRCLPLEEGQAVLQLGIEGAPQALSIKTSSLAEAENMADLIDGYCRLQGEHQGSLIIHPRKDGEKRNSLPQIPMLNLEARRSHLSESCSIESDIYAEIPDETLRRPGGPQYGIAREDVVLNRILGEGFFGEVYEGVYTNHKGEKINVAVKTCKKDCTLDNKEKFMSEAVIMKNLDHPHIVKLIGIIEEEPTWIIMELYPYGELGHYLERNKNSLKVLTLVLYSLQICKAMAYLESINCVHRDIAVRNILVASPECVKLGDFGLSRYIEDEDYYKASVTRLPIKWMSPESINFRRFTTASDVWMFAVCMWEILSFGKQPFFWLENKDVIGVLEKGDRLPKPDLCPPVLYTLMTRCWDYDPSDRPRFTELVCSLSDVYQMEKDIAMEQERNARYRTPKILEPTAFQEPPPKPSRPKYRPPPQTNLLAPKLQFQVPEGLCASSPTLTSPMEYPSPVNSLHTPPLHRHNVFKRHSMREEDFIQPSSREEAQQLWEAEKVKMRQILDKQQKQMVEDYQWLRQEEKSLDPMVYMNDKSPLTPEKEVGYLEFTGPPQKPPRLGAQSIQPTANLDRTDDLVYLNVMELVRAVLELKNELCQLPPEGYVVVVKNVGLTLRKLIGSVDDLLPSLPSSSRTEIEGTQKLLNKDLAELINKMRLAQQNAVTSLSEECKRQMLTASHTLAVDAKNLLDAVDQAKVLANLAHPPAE

B1: GST-LD with a mutation in the third LD motif (other)
chain: EELDALLEELERSTLQDSDEYSNPAPLPLDQHSRKETNLDETSEILSIQDNTSPLPAQLVYTTNIQELNVYSEAQEPKESPPPSKTSAAAQAAALMAHLTEMQAKVAVRADAGKKHLPDKQDHKASLDSMLGGLEQELQDLGIATVPK
notes: not shown: glutathione-S-transferase (GST) encoded by vector pGEX-4T-1 (Pharmacia)
- binding result: no binding
